PMC9515098, “Structural basis for the activity regulation of a potassium channel AKT1 from Arabidopsis” (Nature Communications, 2022)

Legend:
[1] = target: the molecule itself; experiment: cryo-EM structure; cryo-EM, 2D classification only (preliminary analysis); no map or model reported
[2] = target: the molecule itself; experiment: cryo-EM structure; single-particle cryo-EM of AKT1 co-expressed with CIPK23 and CBL1 in HEK293 cells; 0.08% digitonin, 0.5 mM CaCl2, 5 mM MnCl2, 1 mM ATP, 1 mM sodium orthovanadate; map at about 11 Å
[3] = target: the molecule itself; experiment: cryo-EM structure; single-particle cryo-EM of the purified channel from Sf9 cells; 25 mM Tris-HCl pH 7.4, 150 mM KCl, 0.1% digitonin

B1: AKT1_(16-857), AKT1 lacking the N-terminal 15 residues (domain or fragment)
chain: not shown
notes: source: purified
binding result [1]: binds

B2: Phosphorylated AKT1 (AKT1 co-expressed with CIPK23 and CBL1 in HEK293 cells) (natural protein)
chain: not shown
modifications: phosphoserine at Ser26 and Ser338 (found by mass spectrometry after co-expression with CIPK23 and CBL1)
notes: Potassium channel AKT1, Arabidopsis thaliana, UniProt Q38998
binding result [2]: binds

B3: AKT1 Asp379Ala, constitutively-active variant (Flag-tagged, from Sf9 cells) (natural protein)
chain: not shown
notes: Potassium channel AKT1, Arabidopsis thaliana, UniProt Q38998, with the point mutation Asp379Ala; Two cryo-EM classes (4-fold and 2-fold symmetric cytoplasmic domain); also called AKT1-D379A; constitutively-active mutant; source: Sf9 insect cells (Bac-to-bac baculovirus), purified by the same protocol as AKT1
binding result [3]: binds

B4: Arabidopsis thaliana potassium channel AKT1, wild type (Flag-tagged, from Sf9 cells) (natural protein)
chain: not shown
notes: Potassium channel AKT1, Arabidopsis thaliana, UniProt Q38998; Homotetramer in the cryo-EM structure; also called WT AKT1; AKT1 WT
stoichiometry N [3]: 4
